Laboratory results taken from paper PMC8809517, “Cofactor-independent RNA editing by a synthetic S-type PPR protein”.

Assays:
Experiment in all cases: high-throughput RNA pulldown from lysate on Ni-NTA beads; HRP: 50 mM Tris pH 8, 150 mM NaCl, 1 mM beta-mercaptoethanol, 50 ug/ml BSA, 3 ug/ml yeast RNA, 0.5% heparin; ITC and FP: Tris pH 8, 200 mM KCl, 5% glycerol; MST: 50 mM Tris pH 8, 200 mM NaCl, 1 mM DTT, BSA, heparin, 0.05% Tween 20
Conditions in all cases: tags: N-terminal His-eGFP
[1] = biological target: T1, GFP-9S library array, motif 4 ND N98Y;D124E (synthetic construct, N98Y;D124E)
T1 chain: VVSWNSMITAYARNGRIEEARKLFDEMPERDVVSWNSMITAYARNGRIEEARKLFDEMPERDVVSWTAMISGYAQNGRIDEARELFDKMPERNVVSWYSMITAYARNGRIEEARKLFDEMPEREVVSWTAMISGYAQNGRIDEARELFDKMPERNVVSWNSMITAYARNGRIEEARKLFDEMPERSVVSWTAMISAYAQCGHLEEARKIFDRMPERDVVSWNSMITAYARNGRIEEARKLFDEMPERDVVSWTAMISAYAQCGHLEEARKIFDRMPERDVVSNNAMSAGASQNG

[2] = biological target: T2, GFP-9S library array, motif 4 ND N98V;D124T (synthetic construct, N98V;D124T)
T2 chain: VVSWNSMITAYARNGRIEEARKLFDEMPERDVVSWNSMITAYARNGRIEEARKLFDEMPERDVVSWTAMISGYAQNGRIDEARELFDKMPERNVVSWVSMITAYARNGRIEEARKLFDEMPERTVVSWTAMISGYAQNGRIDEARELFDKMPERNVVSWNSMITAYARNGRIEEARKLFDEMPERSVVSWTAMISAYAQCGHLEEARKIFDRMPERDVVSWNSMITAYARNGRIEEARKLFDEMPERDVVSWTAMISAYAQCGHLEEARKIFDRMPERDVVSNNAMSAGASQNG

[3] = biological target: T3, GFP-9S library array, motif 4 ND N98D;D124E (synthetic construct, N98D;D124E)
T3 chain: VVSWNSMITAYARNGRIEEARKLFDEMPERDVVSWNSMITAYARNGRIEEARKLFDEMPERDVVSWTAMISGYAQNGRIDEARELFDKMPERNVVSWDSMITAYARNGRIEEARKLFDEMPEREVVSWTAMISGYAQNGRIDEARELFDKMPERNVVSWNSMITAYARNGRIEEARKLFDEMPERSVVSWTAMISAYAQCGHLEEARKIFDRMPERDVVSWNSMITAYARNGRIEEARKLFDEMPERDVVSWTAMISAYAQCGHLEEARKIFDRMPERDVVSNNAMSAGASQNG

[4] = biological target: T4, GFP-9S library array, motif 4 ND N98S;D124H (synthetic construct, N98S;D124H)
T4 chain: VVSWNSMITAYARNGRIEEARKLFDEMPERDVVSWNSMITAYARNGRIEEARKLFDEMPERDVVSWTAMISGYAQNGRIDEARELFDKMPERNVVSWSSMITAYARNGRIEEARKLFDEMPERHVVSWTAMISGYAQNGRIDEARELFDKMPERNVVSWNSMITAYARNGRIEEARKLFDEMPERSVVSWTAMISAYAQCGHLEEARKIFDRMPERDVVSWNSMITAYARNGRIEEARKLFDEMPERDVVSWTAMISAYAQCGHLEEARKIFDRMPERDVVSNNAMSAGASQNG

[5] = biological target: T5, GFP-9S library array, motif 4 ND N98I;D124G (synthetic construct, N98I;D124G)
T5 chain: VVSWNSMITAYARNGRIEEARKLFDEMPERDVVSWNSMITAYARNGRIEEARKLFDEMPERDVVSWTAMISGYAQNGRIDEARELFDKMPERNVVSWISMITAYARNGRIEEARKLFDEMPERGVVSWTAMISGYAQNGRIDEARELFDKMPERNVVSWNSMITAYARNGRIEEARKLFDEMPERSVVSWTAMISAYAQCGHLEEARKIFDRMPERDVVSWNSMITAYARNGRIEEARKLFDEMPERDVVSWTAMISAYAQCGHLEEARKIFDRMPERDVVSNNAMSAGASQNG

B1: IR-rpoA-A (ssRNA)
RNA: AUUAAACGUGA
Kd ([1]; label: 5' IRDye 800CW): 488 nM | Kd ([2]; label: 5' IRDye 800CW): 36.3 nM | Kd ([3]; label: 5' IRDye 800CW): 343 nM | Kd ([4]; label: 5' IRDye 800CW): 53.5 nM | Kd ([5]; label: 5' IRDye 800CW): 40.6 nM

B2: IR-rpoA-U (ssRNA)
RNA: AUUAUACGUGA
Kd ([1]; label: 5' IRDye 800CW): 286 nM | Kd ([2]; label: 5' IRDye 800CW): 29.3 nM | Kd ([3]; label: 5' IRDye 800CW): 283 nM | Kd ([4]; label: 5' IRDye 800CW): 101 nM | Kd ([5]; label: 5' IRDye 800CW): 26.6 nM

B3: Cy5-rpoA-G (ssRNA)
RNA: AUUAGACGUGA
Kd ([1]; label: 5' Cy5): 169 nM | Kd ([2]; label: 5' Cy5): 86.7 nM | Kd ([3]; label: 5' Cy5): 95.2 nM | Kd ([4]; label: 5' Cy5): 99.4 nM | Kd ([5]; label: 5' Cy5): 72 nM

B4: Cy5-rpoA (ssRNA)
RNA: AUUACACGUGA
Kd ([1]; label: 5' Cy5): 128 nM | Kd ([2]; label: 5' Cy5): 89.3 nM | Kd ([3]; label: 5' Cy5): 124 nM | Kd ([4]; label: 5' Cy5): 122 nM | Kd ([5]; label: 5' Cy5): 69.2 nM
